Publication PMC9168836, “Clamping of DNA shuts the condensin neck gate” (Proceedings of the National Academy of Sciences of the …, 2021)

Experiments:
[1] = molecular target: T1, Smc4-3xStrepII (budding yeast (S. cerevisiae), UniProt Q12267 1-1418); test: cryo-EM structure; condensin pentamer (Smc2, Smc4, Brn1, Ycs4, Ycg1) with 80-bp dsDNA, 5 mM ADP, 1 mM BeSO4, 10 mM NaF in TNT buffer pH 7.5; separate maps of the clamped head module and of Ycg1-DNA; details: both partners purified
T1 construct: Smc4, SMC subunit of budding yeast (S. cerevisiae) condensin; only the head domain, proximal coiled coil and residues 126-144 are resolved in the maps; The tag's end is read from the plasmid's name SMC4-3xStrepII; also called Scm4
T1 sequence: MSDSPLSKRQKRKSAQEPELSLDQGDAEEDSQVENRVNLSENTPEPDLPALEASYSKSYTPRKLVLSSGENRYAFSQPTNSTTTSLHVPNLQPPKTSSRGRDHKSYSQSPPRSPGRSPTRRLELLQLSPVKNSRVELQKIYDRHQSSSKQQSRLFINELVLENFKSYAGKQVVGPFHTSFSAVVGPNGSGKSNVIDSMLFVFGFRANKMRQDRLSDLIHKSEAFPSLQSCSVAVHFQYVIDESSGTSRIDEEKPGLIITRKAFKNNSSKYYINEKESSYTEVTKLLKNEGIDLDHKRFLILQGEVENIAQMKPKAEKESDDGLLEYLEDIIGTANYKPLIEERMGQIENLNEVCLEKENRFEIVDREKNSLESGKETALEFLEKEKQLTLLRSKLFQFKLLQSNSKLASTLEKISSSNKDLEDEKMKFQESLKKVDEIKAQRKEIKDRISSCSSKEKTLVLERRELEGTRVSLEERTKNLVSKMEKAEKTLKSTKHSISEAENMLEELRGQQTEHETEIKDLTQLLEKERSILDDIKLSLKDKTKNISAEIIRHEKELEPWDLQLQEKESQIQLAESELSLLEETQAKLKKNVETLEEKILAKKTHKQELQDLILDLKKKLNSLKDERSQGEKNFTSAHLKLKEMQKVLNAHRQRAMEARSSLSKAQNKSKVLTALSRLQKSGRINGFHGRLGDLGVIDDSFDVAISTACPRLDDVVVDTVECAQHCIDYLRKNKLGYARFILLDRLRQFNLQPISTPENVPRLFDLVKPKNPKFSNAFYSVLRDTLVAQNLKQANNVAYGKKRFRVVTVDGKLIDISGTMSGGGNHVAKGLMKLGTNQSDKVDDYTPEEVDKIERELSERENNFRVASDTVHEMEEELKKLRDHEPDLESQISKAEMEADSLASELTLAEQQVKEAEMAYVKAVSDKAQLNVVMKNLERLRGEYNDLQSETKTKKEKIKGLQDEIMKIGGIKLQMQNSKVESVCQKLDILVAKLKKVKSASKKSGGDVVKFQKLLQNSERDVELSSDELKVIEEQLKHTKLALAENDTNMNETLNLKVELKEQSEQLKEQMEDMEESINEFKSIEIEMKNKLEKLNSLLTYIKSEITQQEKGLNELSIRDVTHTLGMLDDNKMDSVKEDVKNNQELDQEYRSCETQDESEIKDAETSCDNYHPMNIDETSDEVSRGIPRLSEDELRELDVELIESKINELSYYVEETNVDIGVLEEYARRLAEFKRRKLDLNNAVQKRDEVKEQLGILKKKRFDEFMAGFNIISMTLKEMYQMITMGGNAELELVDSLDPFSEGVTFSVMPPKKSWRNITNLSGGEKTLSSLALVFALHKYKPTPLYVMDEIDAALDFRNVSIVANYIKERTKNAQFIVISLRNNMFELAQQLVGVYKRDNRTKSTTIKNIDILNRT

[2] = molecular target: T2, Ycg1 (budding yeast (S. cerevisiae), UniProt Q06680 1-1035); test: as above; details: both partners purified
T2 construct: Ycg1, HAWK (HEAT repeat) subunit of budding yeast (S. cerevisiae) condensin
T2 sequence: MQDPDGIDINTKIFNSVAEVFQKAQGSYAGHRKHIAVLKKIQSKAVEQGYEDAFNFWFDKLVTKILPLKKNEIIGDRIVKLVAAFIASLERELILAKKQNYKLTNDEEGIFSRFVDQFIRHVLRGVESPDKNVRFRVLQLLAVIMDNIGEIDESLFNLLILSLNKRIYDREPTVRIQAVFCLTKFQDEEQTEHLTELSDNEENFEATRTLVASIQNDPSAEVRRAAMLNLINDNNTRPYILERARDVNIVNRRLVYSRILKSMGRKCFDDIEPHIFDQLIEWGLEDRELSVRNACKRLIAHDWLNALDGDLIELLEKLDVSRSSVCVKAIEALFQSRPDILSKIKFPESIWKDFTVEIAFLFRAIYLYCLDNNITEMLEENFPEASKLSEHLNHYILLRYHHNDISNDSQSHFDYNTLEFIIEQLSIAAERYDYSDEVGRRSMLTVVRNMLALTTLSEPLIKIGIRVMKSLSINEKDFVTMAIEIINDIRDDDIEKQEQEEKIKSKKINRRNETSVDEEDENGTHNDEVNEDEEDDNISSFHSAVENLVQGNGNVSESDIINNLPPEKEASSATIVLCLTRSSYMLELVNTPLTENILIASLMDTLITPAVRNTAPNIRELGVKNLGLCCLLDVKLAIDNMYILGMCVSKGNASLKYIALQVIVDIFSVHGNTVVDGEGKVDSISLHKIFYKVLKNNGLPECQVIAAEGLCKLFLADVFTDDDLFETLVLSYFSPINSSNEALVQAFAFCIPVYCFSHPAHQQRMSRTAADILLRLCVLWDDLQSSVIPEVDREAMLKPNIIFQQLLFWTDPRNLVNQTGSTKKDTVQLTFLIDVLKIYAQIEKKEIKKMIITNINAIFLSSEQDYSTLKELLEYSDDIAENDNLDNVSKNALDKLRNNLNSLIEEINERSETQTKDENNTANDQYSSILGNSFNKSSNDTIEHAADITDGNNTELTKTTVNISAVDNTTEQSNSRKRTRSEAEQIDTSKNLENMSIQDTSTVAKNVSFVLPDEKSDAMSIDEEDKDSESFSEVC

B1: Brn1-HA3-His12 (natural protein, budding yeast (S. cerevisiae), UniProt P38170 1-754, looked up)
chain: MTTQLRYENNDDDERVEYNLFTNRSTMMANFEEWIKMATDNKINSRNSWNFALIDYFYDLDVLKDGENNINFQKASATLDGCIKIYSSRVDSVTTETGKLLSGLAQRKTNGASNGDDSNGGNGEGLGGDSDEANIEIDPLTGMPISNDPDVNNTRRRVYNRVLETTLVEFETIKMKELDQELIIDPLFKKALVDFDEGGAKSLLLNTLNIDNTARVIFDASIKDTQNVGQGKLQRKEEELIERDSLVDDENEPSQSLISTRNDSTVNDSVISAPSMEDEILSLGMDFIKFDQIAVCEISGSIEQLRNVVEDINQAKDFIENVNNRFDNFLTEEELQAAVPDNAEDDSDGFDMGMQQELCYPDENHDNTSHDEQDDDNVNSTTGSIFEKDLMAYFDENLNRNWRGREHWKVRNFKKANLVNKESDLLEETRTTIGDTTDKNTTDDKSMDTKKKHKQKKVLEIDFFKTDDSFEDKVFASKGRTKIDMPIKNRKNDTHYLLPDDFHFSTDRITRLFIKPGQKMSLFSHRKHTRGDVSSGLFEKSTVSANHSNNDIPTIADEHFWADNYERKEQEEKEKEQSKEVGDVVGGALDNPFEDDMDGVDFNQAFEGTDDNEEASVKLDLQDDEDHKFPIRENKVTYSRVSKKVDVRRLKKNVWRSINNLIQEHDSRKNREQSSNDSETHTEDESTKELKFSDIIQGISKMYSDDTLKDISTSFCFICLLHLANEHGLQITHTENYNDLIVNYEDLATTQAAS
notes: Brn1, kleisin subunit of budding yeast (S. cerevisiae) condensin; 754 residues as printed (279/754 traced in the head module map); The tags' end is read from the plasmid's name BRN1-HA3-His12; also called kleisin Brn1
B1: binds [1]; binds [2].
